# Data taken from patent US20180161335.
# Key:
# [1] = molecular target: ARF3, purified from E. coli, preloaded with BODIPY FL GDP (UniProt P61204)
# Chain of ARF3, purified from E. coli, preloaded with BODIPY FL GDP (P61204 whole entry): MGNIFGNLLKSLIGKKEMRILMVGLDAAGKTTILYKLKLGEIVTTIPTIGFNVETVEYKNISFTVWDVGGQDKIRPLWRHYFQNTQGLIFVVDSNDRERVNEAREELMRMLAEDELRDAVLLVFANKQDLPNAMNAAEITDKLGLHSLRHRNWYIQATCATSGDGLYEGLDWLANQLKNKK
substance,measurement,setting,value
"C9ORF72 isoform A, 2x HA-tagged, in HEK cell lysate",guanine exchange activity (BODIPY-GDP fluorescence),the other GTPases tested,Significant activity was not observed using both C9ORF72 isoforms on the other GTPases tested
same,guanine exchange activity (BODIPY-GDP fluorescence),[1],C9ORF72 isoforms A and B stimulated guanine exchange on ARF3
